“And” between values parts separate entries of the source, which are not always exact repeats. Equal entries are not always repeated.
What was measured:
Assay type in all cases: in vivo, mouse
[1] = Body weight and tolerability in xenografted nude mice (Example 4)
Procedure: (§1) Each mouse was inoculated with 5×10^6 MDA-MB-468 tumor cells (in 0.1 mL, 1:1 with Matrigel) at the right flank by subcutaneous administration under sterile conditions. When the tumors reached a volume of ˜150 mm^3, mice were randomized into one of 7 treatment groups (6 mice per group), as outlined in Table 12, and treatments began. All doses of DP002-HC4LC5-ADC were administered by intravenous injection via tail vein injection.
(§2) Tumor size and animal body weight were measured twice per week. Clinical signs were recorded daily. Tumors were measured using a caliper in two dimensions (i.e., length (a) and width (b)), and tumor volumes were estimated from measurements of the two diameters of the individual tumors as follows: Tumor Volume (mm^3)=(a×b^2)/2.
(§3) Average tumor growth curves for each treatment group were plotted with the observation time on the X-axis, and corresponding tumor volume (geometric mean) on the Y-axis. A two-tailed t-test was used to analyze the statistical significance of any differences between the treatment groups and the control group. Tumor Growth Inhibition (TGI) was calculated after each tumor volume measurement according to the formula: % TGI=(TVcn−TVtn)/TVcn×100, where TVtn and TVcn are the mean tumor Volume of treated and control groups, respectively. Body weight change (CBW %) was calculated after each body weight measurement according to the formula: CBW %=(BWn−BW0)/BW0×100, where BWn is the body weight at day n and BW0 is the body weight at day 0 respectively.

[2] = test system: xenografted MDA-MB-468 human breast adenocarcinoma tumors; assay: MDA-MB-468 xenograft efficacy in female nude mice (Example 4)
Procedure: The anti-tumor activity of DP002-HC4LC5-ADC was evaluated as a single agent in female nude mice bearing xenografted MDA-MB-468 human breast adenocarcinoma tumors.
as §1, §2, §3

[3] = Side effects in xenografted NOD/SCID mice (Example 3); conditions: 1 mg/kg or 4 mg/kg intravenous, single dose on Day 0
Procedure: (§4) The efficacies of two anti-TROP2-MMAE antibody drug conjugates, DP002-HC1LC5-ADC (DAR ˜2) and DP002-HC4LC5-ADC (DAR ˜1.6-2.3), in inhibiting tumor growth in mice bearing human MDA-MB-468 breast adenocarcinoma tumor xenografts were tested. DP002-HC1LC5-ADC comprises an anti-TROP antibody that comprises HC 1 (SEQ ID NO: 52) and LC5 (SEQ ID NO: 62); DP002-HC4LC5-ADC comprises an anti-TROP antibody that comprises HC 4 (SEQ ID NO: 44) and LC5 (SEQ ID NO: 62). Briefly, 48 NOD/SCID mice (female, 6-8 weeks of age) were implanted with 0.1 ml MDA-MB-468 cells (lx 10^7 cell/ml). When the tumors sizes reached above 181 mm^3 (34 days after tumor inoculation), the mice were sorted randomly into 7 groups (6 mice/group) and treated according to the schedule provided in Table 10 below: […]

[4] = test system: human MDA-MB-468 breast adenocarcinoma tumor xenografts; assay: MDA-MB-468 xenograft efficacy in NOD/SCID mice (Example 3); conditions: single dose on Day 0; for T/C (%) / TGI (%): Day 42
Procedure: as §4

[5] = 2 mg/kg IV Day 0 + 1 mg/kg IV Days 7, 14
[6] = 1 mg/kg IV Days 0, 7, 14, 21, n = 6
[7] = 1 mg/kg IV once on Day 0, n = 6 unless specified
[8] = 2 mg/kg IV Day 0 + 1 mg/kg IV Days 7, 14, n = 6 unless specified
[9] = 2 mg/kg IV once on Day 0, n = 6 unless specified
[10] = 4 mg/kg IV once on Day 0, n = 6 unless specified
[11] = 4 mg/kg IV once on Day 0, outlier animal excluded

B1: DP002-HC4LC5-ADC: anti-TROP2-MMAE antibody drug conjugate (DAR ~1.6-2.3) of antibody with HC4 and LC5 (SEQ ID NO: 62) (conjugate)
VH: EVQLVQSGAEVKKPGESLKISCKGSGYTFTDYSINWVRQMPGKGLEWMGVISTYYGDASYNQKFKGQVTISADKSISTAYLQWSSLKASDTAMYYCARYGDGYNQFDYWGQGTLVTVSS
light: DIQMTQSPSSLSASVGDRVTITCRVSESVDSYGNNFMHWYQQKPGKAPKLLIYRASNLESGVPSRFSGSGSGTDFTFTISSLQPEDIATYYCQQSYEDPYTFGGGTKLEIKRTVAAPSVFIFPPSDEQLKSGTASVVCLLNNFYPREAKVQWKVDNALQSGNSQESVTEQDSKDSTYSLSSTLTLSKADYEKHKVYACEVTHQGLSSPVTKSFNRGEC
modifications: MMAE conjugate
[1]; 1 mg/kg IV Days 0, 7, 14, 21
  BWC (%) Day 70 (body weight change vs Day 0): 8.95%
  Body Weight (g, Mean ± SEM) Day 70: 21.70 ± 0.30 g
  Body Weight (g, Mean ± SEM) Day 84: 21.24 ± 0.26 g
  Drug-related Death: 0
  average body weight increase (%) on Day 84 compared to Day 0: 6.66%
  average body weight increase on Day 70 compared to Day 0: 1.76 g
  average body weight increase on Day 84 compared to Day 0: 1.30 g
[1]; 1 mg/kg IV once on Day 0
  BWC (%) Day 70 (body weight change vs Day 0): 15.09%
  Body Weight (g, Mean ± SEM) Day 70: 22.01 ± 0.50 g
  Body Weight (g, Mean ± SEM) Day 84: 22.06 ± 0.64 g
  Drug-related Death: 0
  average body weight increase (%) on Day 84 compared to Day 0: 12.37%
  average body weight increase on Day 70 compared to Day 0: 2.87 g
  average body weight increase on Day 84 compared to Day 0: 2.92 g
[1]; [5]
  BWC (%) Day 70 (body weight change vs Day 0): 8.89%
  Body Weight (g, Mean ± SEM) Day 70: 21.18 ± 0.49 g
  Body Weight (g, Mean ± SEM) Day 84: 21.31 ± 0.46 g
  Drug-related Death: 0
  average body weight increase (%) on Day 84 compared to Day 0: 10.24%
  average body weight increase on Day 70 compared to Day 0: 1.72 g
  average body weight increase on Day 84 compared to Day 0: 1.85 g
[1]; 2 mg/kg IV once on Day 0
  BWC (%) Day 70 (body weight change vs Day 0): 11.00%
  Body Weight (g, Mean ± SEM) Day 70: 21.63 ± 0.39 g
  Body Weight (g, Mean ± SEM) Day 84: 21.75 ± 0.55 g
  Drug-related Death: 0
  average body weight increase (%) on Day 84 compared to Day 0: 10.84%
  average body weight increase on Day 70 compared to Day 0: 2.14 g
  average body weight increase on Day 84 compared to Day 0: 2.26 g
[1]; 4 mg/kg IV once on Day 0
  BWC (%) Day 70 (body weight change vs Day 0): 10.87%
  Body Weight (g, Mean ± SEM) Day 70: 21.72 ± 0.44 g
  Body Weight (g, Mean ± SEM) Day 84: 20.96 ± 0.55 g
  Drug-related Death: 0
  average body weight increase (%) on Day 84 compared to Day 0: 6.99%
  average body weight increase on Day 70 compared to Day 0: 2.13 g
  average body weight increase on Day 84 compared to Day 0: 1.37 g
[1]; maximum cumulative dose of 4 mg/kg IV (single or split doses)
  tolerability in mice: well tolerated
[2]; 1 mg/kg IV Days 0, 7, 14, 21
  % TGI Day 70: 85.88%
  % of mice with tumor regression at the end of the study: 30%
  Tumor Volume (mm^3, Mean ± SEM) Day 70: 191.51 mm^3 and 192.51 ± 91.38*** mm^3
  Tumor Weight (g, Mean ± SEM) Day 84: 0.421 ± 0.218 g
[2]; [6]
  Number of mice demonstrating full tumor regression at Week 4 following first dose: 1
  Number of mice demonstrating full tumor regression at Week 5 following first dose: 1
  Number of mice demonstrating full tumor regression at Week 6 following first dose: 1
  Number of mice demonstrating full tumor regression at Week 7 following first dose: 2
  Number of mice demonstrating full tumor regression at Week 8 following first dose: 2
  Number of mice demonstrating full tumor regression at Week 9 following first dose: 2
  Number of mice demonstrating full tumor regression at Week 10 following first dose: 2
  Number of mice demonstrating full tumor regression at Week 11 following first dose: 2/6 and 2
  Number of mice demonstrating full tumor regression at Week 12 following first dose: 2
[2]; 1 mg/kg IV once on Day 0
  % TGI Day 70: 62.16%
  Tumor Volume (mm^3, Mean ± SEM) Day 70: 515.77 mm^3 and 515.77 ± 127.38*** mm^3
  Tumor Weight (g, Mean ± SEM) Day 84: 0.658 ± 0.165 g
[2]; 1 mg/kg IV once on Day 0, animals euthanized Day 77
  Tumor Weight (g, Mean ± SEM) Day 77: 0.972 ± 0.165 g
[2]; [7]
  Number of mice demonstrating full tumor regression at Week 4 following first dose: 0
  Number of mice demonstrating full tumor regression at Week 5 following first dose: 0
  Number of mice demonstrating full tumor regression at Week 6 following first dose: 0
  Number of mice demonstrating full tumor regression at Week 7 following first dose: 0
  Number of mice demonstrating full tumor regression at Week 8 following first dose: 0
  Number of mice demonstrating full tumor regression at Week 9 following first dose: 0
  Number of mice demonstrating full tumor regression at Week 10 following first dose: 0
  Number of mice demonstrating full tumor regression at Week 11 following first dose: 0
  Number of mice demonstrating full tumor regression at Week 12 following first dose: 0 (n = 4)
[2]; [5]
  % TGI Day 70: 87.61%
  % of mice with tumor regression at the end of the study: 100%
  Tumor Volume (mm^3, Mean ± SEM) Day 70: 168.94 mm^3 and 168.94 ± 168.94*** mm^3
  Tumor Weight (g, Mean ± SEM) Day 84: 0.000 ± 0.000 g
[2]; 2 mg/kg IV Day 0 + 1 mg/kg IV Days 7, 14, animal euthanized Day 77
  Tumor Weight (g, Mean ± SEM) Day 77: 0.749 g
[2]; [8]
  Number of mice demonstrating full tumor regression at Week 4 following first dose: 5
  Number of mice demonstrating full tumor regression at Week 5 following first dose: 5
  Number of mice demonstrating full tumor regression at Week 6 following first dose: 5
  Number of mice demonstrating full tumor regression at Week 7 following first dose: 5
  Number of mice demonstrating full tumor regression at Week 8 following first dose: 5
  Number of mice demonstrating full tumor regression at Week 9 following first dose: 5
  Number of mice demonstrating full tumor regression at Week 10 following first dose: 5
  Number of mice demonstrating full tumor regression at Week 11 following first dose: 5/6 and 5
  Number of mice demonstrating full tumor regression at Week 12 following first dose: 5 (n = 5)
[2]; 2 mg/kg IV once on Day 0
  % TGI Day 70: 89.74%
  % of mice with tumor regression at the end of the study: 20%
  Tumor Volume (mm^3, Mean ± SEM) Day 70: 139.85 mm^3 and 139.85 ± 99.80*** mm^3
  Tumor Weight (g, Mean ± SEM) Day 84: 0.089 ± 0.048 g
[2]; 2 mg/kg IV once on Day 0, animal euthanized Day 77
  Tumor Weight (g, Mean ± SEM) Day 77: 1.004 g
[2]; [9]
  Number of mice demonstrating full tumor regression at Week 4 following first dose: 2
  Number of mice demonstrating full tumor regression at Week 5 following first dose: 2
  Number of mice demonstrating full tumor regression at Week 6 following first dose: 2
  Number of mice demonstrating full tumor regression at Week 7 following first dose: 2
  Number of mice demonstrating full tumor regression at Week 8 following first dose: 2
  Number of mice demonstrating full tumor regression at Week 9 following first dose: 2
  Number of mice demonstrating full tumor regression at Week 10 following first dose: 2
  Number of mice demonstrating full tumor regression at Week 11 following first dose: 2/6 and 2
  Number of mice demonstrating full tumor regression at Week 12 following first dose: 1 (n = 5)
[2]; 4 mg/kg IV as a single dose on Day 0
  % of mice with tumor regression at the end of the study: 66%
[2]; 4 mg/kg IV once on Day 0
  % TGI Day 70: 78.49%
  Tumor Volume (mm^3, Mean ± SEM) Day 70: 293.26 mm^3 and 293.26 ± 288.40** mm^3
  Tumor Weight (g, Mean ± SEM) Day 84: 0.346 ± 0.341 g
[2]; [10]
  Number of mice demonstrating full tumor regression at Week 4 following first dose: 4
  Number of mice demonstrating full tumor regression at Week 5 following first dose: 4
  Number of mice demonstrating full tumor regression at Week 6 following first dose: 4
  Number of mice demonstrating full tumor regression at Week 7 following first dose: 4
  Number of mice demonstrating full tumor regression at Week 8 following first dose: 4
  Number of mice demonstrating full tumor regression at Week 9 following first dose: 4
  Number of mice demonstrating full tumor regression at Week 10 following first dose: 4
  Number of mice demonstrating full tumor regression at Week 11 following first dose: 4/6 and 4
  Number of mice demonstrating full tumor regression at Week 12 following first dose: 4
[2]; [11]
  TGI on Day 70, excluding the outlier: 99.64%
  average tumor size on Day 70, excluding the outlier: 4.89 mm^3
[3]
  side effects based on changes in body weight, survival and gross observations: No obvious side effects
[4]; 1 mg/kg intravenous
  Tumor Size (mm^3) at Day 42, mean ± SEM: 620 ± 61 mm^3
  T/C (%): 82%
  TGI (%): 18%
[4]; 4 mg/kg intravenous
  Tumor Size (mm^3) at Day 42, mean ± SEM: 4 ± 2 mm^3
  average tumor volume on Day 56: 3 mm^3
  T/C (%): 0%
  TGI (%): 100%

From patent publication US12458818B2, “Anti-trophoblast cell surface antigen 2 (TROP2) antibodies and antibody drug conjugates comprising same” (CSPC MEGALITH BIOPHARMACEUTICAL CO., LTD., priority 2019, dated 2025)
